# Data from paper PMC9482650, “Quantitative fragmentomics allow affinity mapping of interactomes” (Nature Communications, 2022).
# T1: RAPGEF6, Q8TEU7
# T1 sequence (Q8TEU7 525-625, limits assumed, looked up): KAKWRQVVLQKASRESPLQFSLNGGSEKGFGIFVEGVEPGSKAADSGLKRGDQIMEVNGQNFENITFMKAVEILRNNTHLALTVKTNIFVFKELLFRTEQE
# T2: GRIP1_5, Q9Y3R0
# T2 sequence (Q9Y3R0 568-668, limits assumed, looked up): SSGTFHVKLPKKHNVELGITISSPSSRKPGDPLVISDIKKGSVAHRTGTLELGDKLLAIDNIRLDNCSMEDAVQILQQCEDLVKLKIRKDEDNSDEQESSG
# T3: MPDZ_12, O75970
# T3 sequence (O75970 1857-1958, limits assumed, looked up): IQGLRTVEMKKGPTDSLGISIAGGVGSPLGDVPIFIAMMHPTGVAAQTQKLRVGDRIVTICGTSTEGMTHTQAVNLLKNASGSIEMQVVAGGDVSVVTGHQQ
# T4: DFNB31_3, Q9P202
# T4 sequence (Q9P202 811-907, limits assumed, looked up): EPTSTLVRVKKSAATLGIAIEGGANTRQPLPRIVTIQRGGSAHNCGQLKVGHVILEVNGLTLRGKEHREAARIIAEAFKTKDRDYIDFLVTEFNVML
# T5: LIN7B, Q9HAP6
# T5 sequence (Q9HAP6 88-185, limits assumed, looked up): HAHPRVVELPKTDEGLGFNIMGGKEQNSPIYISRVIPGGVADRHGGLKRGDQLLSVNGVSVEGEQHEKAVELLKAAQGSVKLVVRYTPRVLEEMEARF
# T6: NHERF3_4, Q5T2W1
# T6 sequence (Q5T2W1 373-468, limits assumed, looked up): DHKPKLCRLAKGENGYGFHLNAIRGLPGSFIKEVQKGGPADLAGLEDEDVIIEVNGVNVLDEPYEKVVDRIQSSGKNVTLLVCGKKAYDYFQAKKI
# T7: LRRC7, Q96NW7
# T7 sequence (Q96NW7 1440-1537, limits assumed, looked up): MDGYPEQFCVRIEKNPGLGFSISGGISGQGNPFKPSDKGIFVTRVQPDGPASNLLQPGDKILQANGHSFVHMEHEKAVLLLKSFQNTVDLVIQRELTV
# T8: MPP2, Q14168
# T8 sequence (Q14168 180-250, limits assumed, looked up): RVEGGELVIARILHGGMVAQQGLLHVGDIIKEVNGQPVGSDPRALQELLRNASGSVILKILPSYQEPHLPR
# T9: PDZD2_2, O15018
# T9 sequence (O15018 329-429, limits assumed, looked up): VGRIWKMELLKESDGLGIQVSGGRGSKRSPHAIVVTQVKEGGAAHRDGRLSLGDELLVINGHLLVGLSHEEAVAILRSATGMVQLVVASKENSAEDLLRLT
# T10: DLG3_3, Q92796
# T10 sequence (Q92796 374-475, limits assumed, looked up): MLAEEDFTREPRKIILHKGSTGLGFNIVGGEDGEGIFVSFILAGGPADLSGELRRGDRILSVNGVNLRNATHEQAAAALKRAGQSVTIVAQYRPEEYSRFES
# T11: GRIP1_4, Q9Y3R0
# T11 sequence (Q9Y3R0 467-571, limits assumed, looked up): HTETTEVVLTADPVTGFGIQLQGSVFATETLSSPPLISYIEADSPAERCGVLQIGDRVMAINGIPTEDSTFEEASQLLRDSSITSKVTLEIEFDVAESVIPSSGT
# T12: PARD3B_1, Q8TEW8
# T12 sequence (Q8TEW8 196-299, limits assumed, looked up): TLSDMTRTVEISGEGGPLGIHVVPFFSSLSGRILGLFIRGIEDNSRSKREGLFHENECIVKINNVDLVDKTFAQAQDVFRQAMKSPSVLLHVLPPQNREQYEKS
# T13: DFNB31_2, Q9P202
# T13 sequence (Q9P202 274-371, limits assumed, looked up): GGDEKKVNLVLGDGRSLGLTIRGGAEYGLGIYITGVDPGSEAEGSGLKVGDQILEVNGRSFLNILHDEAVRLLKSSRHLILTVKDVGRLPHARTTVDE
# B1: JAM3, Q9BX67 (peptide)
# chain: DFRHKSSFVI
# B2: PKP4, Q99569 (peptide)
# chain: QYPGSPDSWV
# B3: UQCRC2, P22695 (peptide)
# chain: LGHTPFVDEL
# Target: T1, RAPGEF6, Q8TEU7
# Assay: holdup assay
# Parameters: key: below the threshold = too weak to quantify, mostly under pKd 3.1 to 4
# Settings: plain residues with an end cap or a label only (N-terminal biotin on a linker: ado-ado)
row,Binder,pKd
1,B1,below the threshold
2,B2,below the threshold
3,B3,below the threshold

# Target: T2, GRIP1_5, Q9Y3R0
# Assay: holdup assay
# Parameters: key: below the threshold = too weak to quantify, mostly under pKd 3.1 to 4
# Settings: plain residues with an end cap or a label only (N-terminal biotin on a linker: ado-ado)
row,Binder,pKd
1,B1,below the threshold
2,B2,below the threshold
3,B3,below the threshold

# Target: SCRIB_3, Q14160
# Sequence (Q14160 999-1103): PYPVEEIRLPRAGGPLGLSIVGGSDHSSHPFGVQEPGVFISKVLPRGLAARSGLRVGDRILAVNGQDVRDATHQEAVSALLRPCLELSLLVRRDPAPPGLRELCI
# Assay: holdup assay
# Parameters: key: below the threshold = too weak to quantify, mostly under pKd 3.1 to 4
# Settings: plain residues with an end cap or a label only (N-terminal biotin on a linker: ado-ado)
row,Binder,pKd
1,B1,below the threshold
2,B2,4.48
3,B3,below the threshold

# Target: TJP2_1, Q9UDY2
# Sequence (Q9UDY2 24-128): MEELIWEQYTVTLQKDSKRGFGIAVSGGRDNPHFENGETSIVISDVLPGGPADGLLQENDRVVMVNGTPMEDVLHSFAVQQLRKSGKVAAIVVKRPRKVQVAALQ
# Assay: holdup assay
# Parameters: key: below the threshold = too weak to quantify, mostly under pKd 3.1 to 4
# Settings: plain residues with an end cap or a label only (N-terminal biotin on a linker: ado-ado)
row,Binder,pKd
1,B1,below the threshold
2,B2,4.25
3,B3,below the threshold

# Target: GRIP2_5, Q9C0E4
# Sequence (Q9C0E4 544-642): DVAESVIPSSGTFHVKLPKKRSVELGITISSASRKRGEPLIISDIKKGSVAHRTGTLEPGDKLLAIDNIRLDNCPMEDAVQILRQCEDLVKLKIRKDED
# Assay: holdup assay
# Parameters: key: below the threshold = too weak to quantify, mostly under pKd 3.1 to 4
# Settings: plain residues with an end cap or a label only (N-terminal biotin on a linker: ado-ado)
row,Binder,pKd
1,B1,below the threshold
2,B2,3.58
3,B3,below the threshold

# Target: T3, MPDZ_12, O75970
# Assay: holdup assay
# Parameters: key: below the threshold = too weak to quantify, mostly under pKd 3.1 to 4
# Settings: plain residues with an end cap or a label only (N-terminal biotin on a linker: ado-ado)
row,Binder,pKd
1,B1,3.49
2,B2,4.69
3,B3,below the threshold

# Target: T4, DFNB31_3, Q9P202
# Assay: holdup assay
# Parameters: key: below the threshold = too weak to quantify, mostly under pKd 3.1 to 4
# Settings: plain residues with an end cap or a label only (N-terminal biotin on a linker: ado-ado)
row,Binder,pKd
1,B1,3.86
2,B2,3.75
3,B3,3.82

# Target: T5, LIN7B, Q9HAP6
# Assay: holdup assay
# Parameters: key: below the threshold = too weak to quantify, mostly under pKd 3.1 to 4
# Settings: plain residues with an end cap or a label only (N-terminal biotin on a linker: ado-ado)
row,Binder,pKd
1,B1,3.82
2,B2,below the threshold
3,B3,below the threshold

# Target: T6, NHERF3_4, Q5T2W1
# Assay: holdup assay
# Parameters: key: below the threshold = too weak to quantify, mostly under pKd 3.1 to 4
# Settings: plain residues with an end cap or a label only (N-terminal biotin on a linker: ado-ado)
row,Binder,pKd
1,B1,below the threshold
2,B2,below the threshold
3,B3,below the threshold

# Target: LNX1_3, Q8TBB1
# Sequence (Q8TBB1 500-596): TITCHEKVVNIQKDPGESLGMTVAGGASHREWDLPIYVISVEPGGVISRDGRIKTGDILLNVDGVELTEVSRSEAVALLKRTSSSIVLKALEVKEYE
# Assay: holdup assay
# Parameters: key: below the threshold = too weak to quantify, mostly under pKd 3.1 to 4
# Settings: plain residues with an end cap or a label only (N-terminal biotin on a linker: ado-ado)
row,Binder,pKd
1,B1,below the threshold
2,B2,below the threshold
3,B3,below the threshold

# Target: T7, LRRC7, Q96NW7
# Assay: holdup assay
# Parameters: key: below the threshold = too weak to quantify, mostly under pKd 3.1 to 4
# Settings: plain residues with an end cap or a label only (N-terminal biotin on a linker: ado-ado)
row,Binder,pKd
1,B1,below the threshold
2,B2,4.97
3,B3,below the threshold

# Target: T8, MPP2, Q14168
# Assay: holdup assay
# Parameters: key: below the threshold = too weak to quantify, mostly under pKd 3.1 to 4
# Settings: plain residues with an end cap or a label only (N-terminal biotin on a linker: ado-ado)
row,Binder,pKd
1,B1,3.67
2,B2,below the threshold
3,B3,below the threshold

# Target: T9, PDZD2_2, O15018
# Assay: holdup assay
# Parameters: key: below the threshold = too weak to quantify, mostly under pKd 3.1 to 4
# Settings: plain residues with an end cap or a label only (N-terminal biotin on a linker: ado-ado)
row,Binder,pKd
1,B1,below the threshold
2,B2,6.06
3,B3,below the threshold

# Target: SNX27, Q96L92
# Assay: holdup assay
# Parameters: key: below the threshold = too weak to quantify, mostly under pKd 3.1 to 4
# Settings: plain residues with an end cap or a label only (N-terminal biotin on a linker: ado-ado)
row,Binder,pKd
1,B1,below the threshold
2,B2,4.72
3,B3,3.99

# Target: NHERF2_2, Q15599
# Sequence (Q15599 142-238): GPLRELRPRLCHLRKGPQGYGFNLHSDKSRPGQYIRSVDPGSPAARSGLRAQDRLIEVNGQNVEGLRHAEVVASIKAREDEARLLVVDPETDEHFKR
# Assay: holdup assay
# Parameters: key: below the threshold = too weak to quantify, mostly under pKd 3.1 to 4
# Settings: plain residues with an end cap or a label only (N-terminal biotin on a linker: ado-ado)
row,Binder,pKd
1,B1,below the threshold
2,B2,below the threshold
3,B3,4.34

# Target: MAST2, Q6P0Q8
# Sequence (Q6P0Q8 1099-1202): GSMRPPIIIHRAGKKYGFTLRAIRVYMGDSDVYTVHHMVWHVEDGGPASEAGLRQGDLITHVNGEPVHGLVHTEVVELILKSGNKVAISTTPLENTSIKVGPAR
# Assay: holdup assay
# Parameters: key: below the threshold = too weak to quantify, mostly under pKd 3.1 to 4
# Settings: plain residues with an end cap or a label only (N-terminal biotin on a linker: ado-ado)
row,Binder,pKd
1,B1,3.76
2,B2,4.09
3,B3,4.56

# Target: T10, DLG3_3, Q92796
# Assay: holdup assay
# Parameters: key: below the threshold = too weak to quantify, mostly under pKd 3.1 to 4
# Settings: plain residues with an end cap or a label only (N-terminal biotin on a linker: ado-ado)
row,Binder,pKd
1,B1,below the threshold
2,B2,below the threshold
3,B3,below the threshold

# Target: DLG1_1, Q12959
# Assay: holdup assay
# Parameters: key: below the threshold = too weak to quantify, mostly under pKd 3.1 to 4
# Settings: plain residues with an end cap or a label only (N-terminal biotin on a linker: ado-ado)
row,Binder,pKd
1,B1,below the threshold
2,B2,3.96
3,B3,below the threshold

# Target: T11, GRIP1_4, Q9Y3R0
# Assay: holdup assay
# Parameters: key: below the threshold = too weak to quantify, mostly under pKd 3.1 to 4
# Settings: plain residues with an end cap or a label only (N-terminal biotin on a linker: ado-ado)
row,Binder,pKd
1,B1,below the threshold
2,B2,below the threshold
3,B3,below the threshold

# Target: T12, PARD3B_1, Q8TEW8
# Assay: holdup assay
# Parameters: key: below the threshold = too weak to quantify, mostly under pKd 3.1 to 4
# Settings: plain residues with an end cap or a label only (N-terminal biotin on a linker: ado-ado)
row,Binder,pKd
1,B1,5.03
2,B2,3.56
3,B3,below the threshold

# Target: SCRIB_1, Q14160
# Sequence (Q14160 718-814): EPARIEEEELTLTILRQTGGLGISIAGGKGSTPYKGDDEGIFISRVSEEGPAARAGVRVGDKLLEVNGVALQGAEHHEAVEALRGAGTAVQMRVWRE
# Assay: holdup assay
# Parameters: key: below the threshold = too weak to quantify, mostly under pKd 3.1 to 4
# Settings: plain residues with an end cap or a label only (N-terminal biotin on a linker: ado-ado)
row,Binder,pKd
1,B1,below the threshold
2,B2,3.91
3,B3,below the threshold

# Target: T13, DFNB31_2, Q9P202
# Assay: holdup assay
# Parameters: key: below the threshold = too weak to quantify, mostly under pKd 3.1 to 4
# Settings: plain residues with an end cap or a label only (N-terminal biotin on a linker: ado-ado)
row,Binder,pKd
1,B1,below the threshold
2,B2,3.62
3,B3,below the threshold

# Target: Inadl_2, Q8NI35
# Sequence (Q8NI35 238-335): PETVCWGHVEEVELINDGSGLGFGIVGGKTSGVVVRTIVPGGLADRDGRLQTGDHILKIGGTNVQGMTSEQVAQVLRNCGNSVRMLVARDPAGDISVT
# Assay: holdup assay
# Parameters: key: below the threshold = too weak to quantify, mostly under pKd 3.1 to 4
# Settings: plain residues with an end cap or a label only (N-terminal biotin on a linker: ado-ado)
row,Binder,pKd
1,B1,below the threshold
2,B2,below the threshold
3,B3,below the threshold

# Target: PDZRN4_1, Q6ZMN7
# Sequence (Q6ZMN7 213-318): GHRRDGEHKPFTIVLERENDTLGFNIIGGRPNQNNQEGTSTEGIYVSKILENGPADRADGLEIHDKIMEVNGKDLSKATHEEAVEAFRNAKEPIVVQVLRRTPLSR
# Assay: holdup assay
# Parameters: key: below the threshold = too weak to quantify, mostly under pKd 3.1 to 4
# Settings: plain residues with an end cap or a label only (N-terminal biotin on a linker: ado-ado)
row,Binder,pKd
1,B1,below the threshold
2,B2,4.06
3,B3,below the threshold
